Laboratory results: patent US20090018093
pKd: −log10 of the molar value.

System: Immunoglobulin E (IgE) (Homo sapiens), P01854-1
Test: filter
Conditions: RT
[1] = 2'-OMe/2'-deoxy mix, 3:21 pair changed, DPBS Mg/Ca, 0.1 mg/mL BSA

Immunoglobulin E (IgE) (Homo sapiens), P01854-1, sequence (P01854 other isoform, or with tags, fused parts or gaps): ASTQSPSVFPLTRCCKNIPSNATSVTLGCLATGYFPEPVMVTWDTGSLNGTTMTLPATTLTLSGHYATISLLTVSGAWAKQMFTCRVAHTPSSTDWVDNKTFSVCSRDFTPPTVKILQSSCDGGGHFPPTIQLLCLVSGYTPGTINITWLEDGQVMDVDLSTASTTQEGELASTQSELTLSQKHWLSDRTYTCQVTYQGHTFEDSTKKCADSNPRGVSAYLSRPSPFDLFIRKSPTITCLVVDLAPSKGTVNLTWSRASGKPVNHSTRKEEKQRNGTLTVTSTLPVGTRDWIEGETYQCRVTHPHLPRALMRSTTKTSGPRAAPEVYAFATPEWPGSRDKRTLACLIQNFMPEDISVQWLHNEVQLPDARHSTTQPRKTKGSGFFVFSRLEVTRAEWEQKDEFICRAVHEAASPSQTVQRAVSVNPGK

Sequence AGACUGGGGACCCAUGGGGGUCU [ARC1248] has a pKd [1] of 7.42.
With AGACUGGGGACCCAUGGGGGUCU [ARC1249] the pKd [1] was 6.89.
Sequence “AGCCNUGGGNGACCCAUNNNGNNGNNGCUN [ARC2972]” has a pKd (ARC1666 chemistry + PS 4-5, 3' idT, DPBS Mg/Ca, BSA) of 10.30.
Sequence AGCCUGGGGACCCAUGGGGGG [ARC2345] has a pKd (ARC1666 pattern without 3' idT [dI (written G) at 16,18,20, 2'-OMe 1-5,7,10-15,17, deoxy 6,8,9,16,18-21, PS 8/9,15/16,16/17,18/19,20/21, no 3' idT], dPBS + BSA) of 7.53.
With AGCCUGGGGACCCAUGGGGGGC [ARC2344] the pKd (ARC1666 pattern without 3' idT [dI (written G) at 16,18,20, 2'-OMe 1-5,7,10-15,17,22, deoxy 6,8,9,16,18-21, PS 8/9,15/16,16/17,18/19,20/21, no 3' idT], dPBS + BSA) was 9.39.
AGCCUGGGGACCCAUGGGGGGCU [ARC902] gave a pKd (dRmY (2'-OMe C,U), 7-deaza-dG2 [7-deaza-dG at 2, 2'-OMe C3,C4,U5,C11,C12,C13,U15,C22,U23, A,G 2'-deoxy], DPBS Mg/Ca, 0.1 mg/mL BSA) of 8.05.
For AGCCUGGGGACCCAUGGGGGGCU [ARC903], the pKd (dRmY (2'-OMe C,U), 7-deaza-dG6 [7-deaza-dG at 6, 2'-OMe C3,C4,U5,C11,C12,C13,U15,C22,U23, A,G 2'-deoxy], DPBS Mg/Ca, 0.1 mg/mL BSA) was 7.85.
In the case of AGCCUGGGGACCCAUGGGGGGCU [ARC904], the pKd (dRmY (2'-OMe C,U), 7-deaza-dG7 [7-deaza-dG at 7, 2'-OMe C3,C4,U5,C11,C12,C13,U15,C22,U23, A,G 2'-deoxy], DPBS Mg/Ca, 0.1 mg/mL BSA) was 8.10.
In the case of AGCCUGGGGACCCAUGGGGGGCU [ARC905], the pKd (dRmY (2'-OMe C,U), 7-deaza-dG8 [7-deaza-dG at 8, 2'-OMe C3,C4,U5,C11,C12,C13,U15,C22,U23, A,G 2'-deoxy], DPBS Mg/Ca, 0.1 mg/mL BSA) was 8.05.
With AGCCUGGGGACCCAUGGGGGGCU [ARC906] the pKd (dRmY, 7-deaza-dG at G9 [7-deaza-dG: 9, 2'-OMe: 3-5,11-13,15,22,23, deoxy: all A,G], dPBS Ca/Mg + BSA) was 7.06.
AGCCUGGGGACCCAUGGGGGGCU [ARC907] gave a pKd (dRmY (2'-OMe C,U), 7-deaza-dG16 [7-deaza-dG at 16, 2'-OMe C3,C4,U5,C11,C12,C13,U15,C22,U23, A,G 2'-deoxy], DPBS Mg/Ca, 0.1 mg/mL BSA) of 7.66.
Sequence AGCCUGGGGACCCAUGGGGGGCU [ARC908] has a pKd (dRmY, 7-deaza-dG at G17 [7-deaza-dG: 17, 2'-OMe: 3-5,11-13,15,22,23, deoxy: all A,G], dPBS Ca/Mg + BSA) of 8.52.
Sequence AGCCUGGGGACCCAUGGGGGGCU [ARC912] has a pKd (dRmY, 7-deaza-dG at G21 [7-deaza-dG: 21, 2'-OMe: 3-5,11-13,15,22,23, deoxy: all A,G], dPBS Ca/Mg + BSA) of 8.05.
For AGCCUGGGGACCCAUGGGGGGCU [ARC1250], the pKd (2'-OMe C,U and A1, other A,G deoxy, 3' idT [2'-OMe: 1,3,4,5,11,12,13,15,22,23, 2'-deoxy: 2,6,7,8,9,10,14,16,17,18,19,20,21, 24 = 3' inverted dT], dPBS Ca/Mg + BSA) was 7.96.
Sequence AGCCUGGGGACCCAUGGGGGGCU [ARC1252] has a pKd (2'-OMe C,U and G6, other A,G deoxy, 3' idT [2'-OMe: 3,4,5,6,11,12,13,15,22,23, 2'-deoxy: 1,2,7,8,9,10,14,16,17,18,19,20,21, 24 = 3' inverted dT], dPBS Ca/Mg + BSA) of 7.01.
AGCCUGGGGACCCAUGGGGGGCU [ARC1253] was tested, and the pKd (2'-OMe C,U and G7, other A,G deoxy, 3' idT [2'-OMe: 3,4,5,7,11,12,13,15,22,23, 2'-deoxy: 1,2,6,8,9,10,14,16,17,18,19,20,21, 24 = 3' inverted dT], dPBS Ca/Mg + BSA) was 8.70.
AGCCUGGGGACCCAUGGGGGGCU [ARC1254] was tested, and the pKd (2'-OMe C,U and G8, other A,G deoxy, 3' idT [2'-OMe: 3,4,5,8,11,12,13,15,22,23, 2'-deoxy: 1,2,6,7,9,10,14,16,17,18,19,20,21, 24 = 3' inverted dT], dPBS Ca/Mg + BSA) was 7.62.
AGCCUGGGGACCCAUGGGGGGCU [ARC1255] gave a pKd (2'-OMe G9 and all C,U, rest 2'-deoxy, 3' idT [2'-OMe at 3,4,5,9,11,12,13,15,22,23, 3'-idT at 24], DPBS Mg/Ca, 0.1 mg/mL BSA) of 8.10.
Sequence AGCCUGGGGACCCAUGGGGGGCU [ARC1256] has a pKd (2'-OMe C,U and A10, other A,G deoxy, 3' idT [2'-OMe: 3,4,5,10,11,12,13,15,22,23, 2'-deoxy: 1,2,6,7,8,9,14,16,17,18,19,20,21, 24 = 3' inverted dT], dPBS Ca/Mg + BSA) of 9.40.
For AGCCUGGGGACCCAUGGGGGGCU [ARC1257], the pKd (2'-OMe A14 and all C,U, rest 2'-deoxy, 3' idT [2'-OMe at 3,4,5,11,12,13,14,15,22,23, 3'-idT at 24], DPBS Mg/Ca, 0.1 mg/mL BSA) was 8.22.
With AGCCUGGGGACCCAUGGGGGGCU [ARC1258] the pKd (2'-OMe C,U and G16, other A,G deoxy, 3' idT [2'-OMe: 3,4,5,11,12,13,15,16,22,23, 2'-deoxy: 1,2,6,7,8,9,10,14,17,18,19,20,21, 24 = 3' inverted dT], dPBS Ca/Mg + BSA) was 7.82.
For AGCCUGGGGACCCAUGGGGGGCU [ARC1259], the pKd (2'-OMe G17 and all C,U, rest 2'-deoxy, 3' idT [2'-OMe at 3,4,5,11,12,13,15,17,22,23, 3'-idT at 24], DPBS Mg/Ca, 0.1 mg/mL BSA) was 8.30.
AGCCUGGGGACCCAUGGGGGGCU [ARC1260] was tested, and the pKd (2'-OMe C,U and G18, other A,G deoxy, 3' idT [2'-OMe: 3,4,5,11,12,13,15,18,22,23, 2'-deoxy: 1,2,6,7,8,9,10,14,16,17,19,20,21, 24 = 3' inverted dT], dPBS Ca/Mg + BSA) was 6.99.
Sequence AGCCUGGGGACCCAUGGGGGGCU [ARC1261] has a pKd (2'-OMe C,U and G19, other A,G deoxy, 3' idT [2'-OMe: 3,4,5,11,12,13,15,19,22,23, 2'-deoxy: 1,2,6,7,8,9,10,14,16,17,18,20,21, 24 = 3' inverted dT], dPBS Ca/Mg + BSA) of 7.20.
AGCCUGGGGACCCAUGGGGGGCU [ARC1262] showed a pKd (2'-OMe C,U and G20, other A,G deoxy, 3' idT [2'-OMe: 3,4,5,11,12,13,15,20,22,23, 2'-deoxy: 1,2,6,7,8,9,10,14,16,17,18,19,21, 24 = 3' inverted dT], dPBS Ca/Mg + BSA) of 7.49.
AGCCUGGGGACCCAUGGGGGGCU [ARC1263] showed a pKd (2'-OMe C,U and G21, other A,G deoxy, 3' idT [2'-OMe: 3-5,11-13,15,21-23, deoxy: 1,2,6-10,14,16-20, 24 = 3' inverted dT], dPBS Ca/Mg + BSA) of 7.19.
AGCCUGGGGACCCAUGGGGGGCU [ARC1264] gave a pKd (2'-OMe A1,G2,G20,G21 and all C,U, rest 2'-deoxy as printed, 3' idT [2'-OMe A1,G2,C3,C4,U5,C11,C12,C13,U15,G20,G21,C22,U23, rest 2'-deoxy, 3' inverted dT at 24], DPBS Mg/Ca, 0.1 mg/mL BSA) of 7.33.
With AGCCUGGGGACCCAUGGGGGGCU [ARC1332] the pKd (2'-OMe G2,A10,A14 and all C,U, rest 2'-deoxy, 3' idT [2'-OMe G2,C3,C4,U5,A10,C11,C12,C13,A14,U15,C22,U23, 3' inverted dT at 24], DPBS Mg/Ca, 0.1 mg/mL BSA) was 9.30.
In the case of AGCCUGGGGACCCAUGGGGGGCU [ARC1333], the pKd (2'-OMe G2,G7,G17 and all C,U, rest 2'-deoxy, 3' idT [2'-OMe G2,C3,C4,U5,G7,C11,C12,C13,U15,G17,C22,U23, 3' inverted dT at 24], DPBS Mg/Ca, 0.1 mg/mL BSA) was 8.82.
In the case of AGCCUGGGGACCCAUGGGGGGCU [ARC1334], the pKd (2'-OMe G2,G7,A10,A14,G17 and all C,U, rest 2'-deoxy, 3' idT [2'-OMe G2,C3,C4,U5,G7,A10,C11,C12,C13,A14,U15,G17,C22,U23, 3' inverted dT at 24], DPBS Mg/Ca, 0.1 mg/mL BSA) was 9.52.
In the case of AGCCUGGGGACCCAUGGGGGGCU [ARC1548], the pKd (ARC1335 chemistry with dI2, 3' idT [2=dI (G parent), 24=3' inverted dT], DPBS Mg/Ca, 0.1 mg/mL BSA) was 8.48.
Sequence AGCCUGGGGACCCAUGGGGGGCU [ARC1562] has a pKd (ARC1335 chemistry with dI16, G17 deoxy as printed, 3' idT [16=dI (G parent), 17=deoxy G, 24=3' inverted dT], DPBS Mg/Ca, 0.1 mg/mL BSA) of 9.22.
AGCCUGGGGACCCAUGGGGGGCU [ARC1563] showed a pKd (ARC1335 chemistry with dI17, 3' idT [17=dI (G parent), 24=3' inverted dT], DPBS Mg/Ca, 0.1 mg/mL BSA) of 8.66.
AGCCUGGGGACCCAUGGGGGGCU [ARC1564] showed a pKd (ARC1335 chemistry with dI18, 3' idT [18=dI (G parent), 24=3' inverted dT], DPBS Mg/Ca, 0.1 mg/mL BSA) of 9.30.
In the case of AGCCUGGGGACCCAUGGGGGGCU [ARC1565], the pKd (ARC1335 chemistry with dI19 as printed, 3' idT [19=dI (G parent), 24=3' inverted dT], DPBS Mg/Ca, 0.1 mg/mL BSA) was 8.85.
In the case of AGCCUGGGGACCCAUGGGGGGCU [ARC1566], the pKd (ARC1335 pattern with dI20, 3' idT [dI20 (inosine, parent base G), 3' inverted dT24, rest ARC1335 pattern], dPBS Ca/Mg + BSA) was 10.00.
In the case of AGCCUGGGGACCCAUGGGGGGCU [ARC1567], the pKd (ARC1335 pattern with dI21, 3' idT [dI21 (inosine, parent base G), 3' inverted dT24, rest ARC1335 pattern], dPBS Ca/Mg + BSA) was 8.46.
AGCCUGGGGACCCAUGGGGGGCU [ARC2343] showed a pKd (ARC1666 pattern without 3' idT [dI (written G) at 16,18,20, 2'-OMe 1-5,7,10-15,17,22,23, deoxy 6,8,9,16,18-21, PS 8/9,15/16,16/17,18/19,20/21, no 3' idT], dPBS + BSA) of 10.05.
With AGCCUGGGGACCCAUGGGGGGCU [ARC2981] the pKd (ARC1666 pattern plus PS between A14 and U15, 3' idT [dI (written G) at 16,18,20, 2'-OMe 1-5,7,10-15,17,22,23, deoxy 6,8,9,16,18-21, PS 8/9,14/15,15/16,16/17,18/19,20/21, 3' inverted dT left out], dPBS Ca/Mg + BSA) was 10.70.
AGCCUGGGGACCCAUGGGGGGCU [ARC3262] was tested, and the pKd (ARC1666 pattern with 2'-OMe G8, 3' idT [dI (written G) at 16,18,20, 2'-OMe 1-5,7,8,10-15,17,22,23, deoxy 6,9,16,18-21, PS 8/9,15/16,16/17,18/19,20/21, 3' inverted dT left out], dPBS Ca/Mg + BSA) was 9.80.
For AGCCUGGGGACCCAUGGGGGGCU [ARC3263], the pKd (ARC1666 pattern with 2'-OMe G9, 3' idT [dI (written G) at 16,18,20, 2'-OMe 1-5,7,9,10-15,17,22,23, deoxy 6,8,16,18-21, PS 8/9,15/16,16/17,18/19,20/21, 3' inverted dT left out], dPBS Ca/Mg + BSA) was 10.59.
